Assay results published in paper doi:10.1101/2025.01.22.634229, “Computationally designed stem-epitope mimetics elicit broadly reactive antibodies” (bioRxiv, 2025).

How the values were obtained:
Conditions in all cases: both partners purified
FI6-focused_03 = molecular target: T1, FI6-focused_03 (synthetic design on Bacteroides …); test: SPR
T1 construct: also called FI6-focused design_03; design_03 scaffold; source: E. coli BL21 (DE3), purified (Ni-NTA, SEC)
T1 chain: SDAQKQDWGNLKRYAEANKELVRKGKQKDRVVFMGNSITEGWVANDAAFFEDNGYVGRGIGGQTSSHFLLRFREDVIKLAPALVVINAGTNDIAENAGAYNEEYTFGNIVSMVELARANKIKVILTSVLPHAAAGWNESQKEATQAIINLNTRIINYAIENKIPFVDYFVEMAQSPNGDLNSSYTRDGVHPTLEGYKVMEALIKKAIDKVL

FI6-focused_04 = molecular target: T2, FI6-focused_04 (synthetic design on Bacteroides …); test: SPR; Biacore 8K, HBS-EP+; ligand on a CM5 chip by amine coupling, named FI6 Fab in the legend of Figure 2A and 2D (the methods say IgG); monomeric design as analyte (62.5 nM to 7.8 nM for FI6-focused_04; 5 μM to 312.5 nM for stem-mimetic_01); 1:1 Langmuir fit
T2 construct: also called FI6-focused design_04; FI6-focused design; source: E. coli BL21 (DE3), purified (Ni-NTA, SEC)
T2 chain: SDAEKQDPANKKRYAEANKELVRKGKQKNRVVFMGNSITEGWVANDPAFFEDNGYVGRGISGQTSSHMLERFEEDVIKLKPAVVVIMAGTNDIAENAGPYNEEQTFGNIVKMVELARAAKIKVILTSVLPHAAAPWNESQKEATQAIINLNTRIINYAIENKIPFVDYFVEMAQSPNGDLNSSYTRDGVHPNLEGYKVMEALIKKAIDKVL

stem-mimetic_01 = molecular target: T3, stem-mimetic_01 (synthetic design on Mus musculus ApoE …, chimera); test: as above
T3 construct: source: E. coli BL21 (DE3), purified (Ni-NTA, SEC)
T3 chain: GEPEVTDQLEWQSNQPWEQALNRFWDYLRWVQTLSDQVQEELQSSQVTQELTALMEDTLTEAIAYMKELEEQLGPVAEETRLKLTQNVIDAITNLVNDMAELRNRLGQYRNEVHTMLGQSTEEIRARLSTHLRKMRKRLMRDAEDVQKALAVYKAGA

Row | Binder | Kd (FI6-focused_03) [nM] | Kd (FI6-focused_04) [nM] | Kd (stem-mimetic_01) [nM]
1 | FI6 antibody (IgG) (antibody, V domains shown, also called FI6 Ab; source: Expi293, purified (protein A, SEC)) VH: QVQLVESGGGVVQPGRSLRLSCAASGFTFSTYAMHWVRQAPGKGLEWVAVISYDANYKYYADSVKGRFTISRDNSKNTLYLQMNSLRAEDTAVYYCAKDSQLRSLLYFEWLSQGYFDYWGQGTLVTVSS VL: DIVMTQSPDSLAVSLGERATINCKSSQSVTFNYKNYLAWYQQKPGQPPKLLIYWASTRESGVPDRFSGSGSGTDFTLTISSLQAEDVAVYYCQQHYRTPPTFGQGTVEIK | 0.26 | – | –
2 | FI6 Fab (Fab, V domains shown) VH: QVQLVESGGGVVQPGRSLRLSCAASGFTFSTYAMHWVRQAPGKGLEWVAVISYDANYKYYADSVKGRFTISRDNSKNTLYLQMNSLRAEDTAVYYCAKDSQLRSLLYFEWLSQGYFDYWGQGTLVTVSS VL: DIVMTQSPDSLAVSLGERATINCKSSQSVTFNYKNYLAWYQQKPGQPPKLLIYWASTRESGVPDRFSGSGSGTDFTLTISSLQAEDVAVYYCQQHYRTPPTFGQGTVEIK | – | 6 | 44
